Substitutions are numbered along the chain they refer to.
How the values were obtained:
human VEGF (human) = human VEGF (human) (UniProt P15692); assay: specificity phage ELISA
[1] = molecular target: human DR5 (construct not stated) (human) (UniProt O14763); assay: specificity phage ELISA
human insulin (human) = human insulin (human) (UniProt P01308); assay: specificity phage ELISA
human IGF-1 (human) = human IGF-1 (human) (UniProt P05019); assay: specificity phage ELISA
neutravidin = neutravidin (UniProt P02701); assay: specificity phage ELISA
[2] = molecular target: T1, human HER-2 extracellular domain (HER-2 ECD) (human, UniProt P04626 23-646); assay: competitive Fab-phage ELISA
T1 construct: range 23-646; also called erbB2; HER2 protein

[3] = molecular target: T1, human HER-2 extracellular domain (HER-2 …); assay: Fab-phage binding affinity
[4] = molecular target: T1, human HER-2 extracellular domain (HER-2 …); assay: SPR (BIAcore A100), HER2 amine-coupled to the chip, soluble Fab injected, 25 C
[5] = molecular target: T1, human HER-2 extracellular domain (HER-2 …); assay: competitive Fab-phage ELISA; remark: listed apart in the source

B1: Clone G37 (SX-surface), purified Fab (Fab, V domains shown)
VH: EVQLVESGGGLVQPGGSLRLSCAASGFSIWWSWIHWVRQAPGKGLEWVASISPSSGWTSYADSVKGRFTISADTSKNTAYLQMNSLRAEDTAVYYCARWWSSAMDYWGQGTLVTVSS
VL: DIQMTQSPSSLSASVGDRVTITCRASQDVNTAVAWYQQKPGKAPKLLIYSASSLYSGVPSRFSGSRSGTDFTLTISSLQPEDFATYYCQQWWWWPSTFGQGTKVEIK
With B1 as the binder, how does the ELISA signal at 450 nm (human VEGF (human)) read?
The ELISA signal at 450 nm was 0.23.

What about the ELISA signal at 450 nm [1] of the same binder?
Its ELISA signal at 450 nm is 0.21.

What about the ELISA signal at 450 nm (human insulin (human)) of the same binder?
The ELISA signal at 450 nm was 0.45.

What about the ELISA signal at 450 nm (human IGF-1 (human)) of the same binder?
Its ELISA signal at 450 nm is 0.32.

And the ELISA signal at 450 nm (neutravidin)?
Its ELISA signal at 450 nm is 0.32.

What about the IC50 [2] of the same binder?
The IC50 was 0.31 nM.

And the IC50 [3]?
The IC50 was 0.31 nM.

B2: Clone YSGR-A-42, purified soluble Fab (Fab, V domains shown)
VH: EVQLVESGGGLVQPGGSLRLSCAASGFYISSSSIHWVRQAPGKGLEWVAYIYPSSGYTSYADSVKGRFTISADTSKNTAYLQMNSLRAEDTAVYYCARGYYYSYYSGYALDYWGQGTLVTVSS
VL: B1 VL with W91S, W92Y, W93S, W94S
notes: also called clone 42 (YSGR-A); clone 42
What does the source list for B2?
Kd [4]: 0.57 nM; koff [4]: 0.0015 s⁻¹; kon [4]: 2.7e+06 M⁻¹ s⁻¹; IC50 [3]: 0.32 nM; IC50 [5]: 0.32 nM

From patent US20070202552A1 (Genentech, published 2007)
